The source of these data is patent publication US20240141067A1 (RALLYBIO IPA, published 2024).

For test [1], the target named is APLDQ GPIIIa (murine integrin β3 humanized to carry the HPA-1a epitope, in GPIIb-IIIa) on APLDQ mouse platelets (mouse) (UniProt O54890). Nature of the test: flow cytometry saturation-binding curves on APLDQ platelets.
The target in test [2] is T1, HPA-1a (Leu33 form of human GPIIIa / integrin β3, in GPIIb-IIIa) on HPA-1a/a human platelets (human, UniProt P05106 27-788; P08514 32-1039).
T1 construct: whole, on cells; Native antigen on washed platelets from HPA-1a/a individuals; also called HPA-1a alloantigen; HPA-1a expressed on GPIIIa
T1 sequence (P05106 27-788, chain 1 of 2): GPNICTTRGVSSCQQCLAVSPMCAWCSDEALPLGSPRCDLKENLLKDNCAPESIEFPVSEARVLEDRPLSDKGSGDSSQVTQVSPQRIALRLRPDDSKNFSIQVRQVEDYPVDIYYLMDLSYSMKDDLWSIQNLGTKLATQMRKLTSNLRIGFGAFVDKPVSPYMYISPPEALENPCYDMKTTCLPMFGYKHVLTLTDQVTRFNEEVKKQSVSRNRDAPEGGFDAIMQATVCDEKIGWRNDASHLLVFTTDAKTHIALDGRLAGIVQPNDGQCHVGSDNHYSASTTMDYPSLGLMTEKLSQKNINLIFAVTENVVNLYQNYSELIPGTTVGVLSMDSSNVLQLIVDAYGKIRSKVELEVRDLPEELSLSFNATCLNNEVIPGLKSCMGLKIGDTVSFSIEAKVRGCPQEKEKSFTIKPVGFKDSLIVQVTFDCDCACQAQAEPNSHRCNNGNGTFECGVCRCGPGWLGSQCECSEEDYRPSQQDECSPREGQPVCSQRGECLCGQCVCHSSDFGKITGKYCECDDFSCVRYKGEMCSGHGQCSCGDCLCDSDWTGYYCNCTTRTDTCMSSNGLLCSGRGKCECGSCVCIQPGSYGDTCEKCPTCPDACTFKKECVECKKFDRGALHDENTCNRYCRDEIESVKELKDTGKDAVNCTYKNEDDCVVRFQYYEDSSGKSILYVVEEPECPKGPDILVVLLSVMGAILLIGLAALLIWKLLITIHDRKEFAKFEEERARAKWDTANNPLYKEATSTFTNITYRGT
T1 sequence (P08514 32-1039, chain 2 of 2): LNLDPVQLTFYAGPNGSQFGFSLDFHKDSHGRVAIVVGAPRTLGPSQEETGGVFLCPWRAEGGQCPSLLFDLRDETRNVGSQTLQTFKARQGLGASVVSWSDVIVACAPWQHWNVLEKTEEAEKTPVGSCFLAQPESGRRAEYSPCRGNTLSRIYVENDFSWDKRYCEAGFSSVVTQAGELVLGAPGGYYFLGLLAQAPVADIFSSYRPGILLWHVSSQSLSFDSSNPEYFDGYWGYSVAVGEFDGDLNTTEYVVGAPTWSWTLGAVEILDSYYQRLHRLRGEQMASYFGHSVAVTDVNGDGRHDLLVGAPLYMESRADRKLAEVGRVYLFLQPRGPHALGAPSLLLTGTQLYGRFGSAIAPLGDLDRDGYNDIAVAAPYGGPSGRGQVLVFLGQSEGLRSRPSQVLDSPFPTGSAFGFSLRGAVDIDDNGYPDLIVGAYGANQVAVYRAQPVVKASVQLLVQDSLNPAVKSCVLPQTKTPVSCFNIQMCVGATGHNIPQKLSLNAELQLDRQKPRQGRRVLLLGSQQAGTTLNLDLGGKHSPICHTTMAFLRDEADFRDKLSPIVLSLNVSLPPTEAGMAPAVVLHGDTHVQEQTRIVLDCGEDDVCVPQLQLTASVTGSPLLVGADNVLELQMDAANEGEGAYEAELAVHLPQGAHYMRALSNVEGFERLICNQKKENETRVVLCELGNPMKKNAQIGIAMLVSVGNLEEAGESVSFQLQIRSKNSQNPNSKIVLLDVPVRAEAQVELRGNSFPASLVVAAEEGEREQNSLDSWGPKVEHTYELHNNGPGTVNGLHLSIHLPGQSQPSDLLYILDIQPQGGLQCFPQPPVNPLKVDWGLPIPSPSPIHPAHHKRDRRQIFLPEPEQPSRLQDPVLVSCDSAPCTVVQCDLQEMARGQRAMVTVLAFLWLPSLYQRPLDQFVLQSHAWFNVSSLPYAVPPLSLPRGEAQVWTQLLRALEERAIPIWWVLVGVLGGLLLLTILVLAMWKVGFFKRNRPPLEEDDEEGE
In words: flow cytometry on washed human platelets, FITC goat anti-human IgG.

The target of test [3] is APLDQ GPIIIa (murine integrin β3 humanized to carry the HPA-1a epitope, in GPIIb-IIIa) on APLDQ mouse platelets (mouse) (UniProt O54890). Nature of the test: flow cytometry saturation-binding curve on APLDQ homozygous platelets.

APLDQ GPIIIa (murine integrin β3 humanized to carry the HPA-1a epitope, in GPIIb-IIIa) on APLDQ mouse platelets (mouse), sequence (O54890 26-787, chain 1 of 2): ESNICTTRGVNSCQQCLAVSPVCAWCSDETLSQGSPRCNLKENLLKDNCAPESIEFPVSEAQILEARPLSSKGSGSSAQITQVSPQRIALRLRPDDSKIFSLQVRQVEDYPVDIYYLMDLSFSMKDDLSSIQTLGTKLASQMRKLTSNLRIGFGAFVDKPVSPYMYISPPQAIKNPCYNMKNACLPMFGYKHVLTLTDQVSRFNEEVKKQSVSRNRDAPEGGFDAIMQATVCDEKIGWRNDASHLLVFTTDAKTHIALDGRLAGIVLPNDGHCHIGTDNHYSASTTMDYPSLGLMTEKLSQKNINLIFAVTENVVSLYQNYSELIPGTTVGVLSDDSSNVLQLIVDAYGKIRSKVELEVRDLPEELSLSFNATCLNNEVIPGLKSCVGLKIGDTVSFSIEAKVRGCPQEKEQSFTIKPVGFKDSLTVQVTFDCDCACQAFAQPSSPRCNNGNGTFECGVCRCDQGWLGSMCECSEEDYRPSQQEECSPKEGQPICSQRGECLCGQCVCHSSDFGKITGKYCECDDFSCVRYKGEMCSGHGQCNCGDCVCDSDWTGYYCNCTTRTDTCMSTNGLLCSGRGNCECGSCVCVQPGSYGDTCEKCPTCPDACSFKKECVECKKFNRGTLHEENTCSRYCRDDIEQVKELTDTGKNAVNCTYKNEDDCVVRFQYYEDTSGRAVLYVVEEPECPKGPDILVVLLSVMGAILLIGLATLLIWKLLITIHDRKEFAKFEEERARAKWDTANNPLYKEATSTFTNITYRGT
APLDQ GPIIIa (murine integrin β3 humanized to carry the HPA-1a epitope, in GPIIb-IIIa) on APLDQ mouse platelets (mouse), sequence (Q9QUM0 32-1033, chain 2 of 2, further chain): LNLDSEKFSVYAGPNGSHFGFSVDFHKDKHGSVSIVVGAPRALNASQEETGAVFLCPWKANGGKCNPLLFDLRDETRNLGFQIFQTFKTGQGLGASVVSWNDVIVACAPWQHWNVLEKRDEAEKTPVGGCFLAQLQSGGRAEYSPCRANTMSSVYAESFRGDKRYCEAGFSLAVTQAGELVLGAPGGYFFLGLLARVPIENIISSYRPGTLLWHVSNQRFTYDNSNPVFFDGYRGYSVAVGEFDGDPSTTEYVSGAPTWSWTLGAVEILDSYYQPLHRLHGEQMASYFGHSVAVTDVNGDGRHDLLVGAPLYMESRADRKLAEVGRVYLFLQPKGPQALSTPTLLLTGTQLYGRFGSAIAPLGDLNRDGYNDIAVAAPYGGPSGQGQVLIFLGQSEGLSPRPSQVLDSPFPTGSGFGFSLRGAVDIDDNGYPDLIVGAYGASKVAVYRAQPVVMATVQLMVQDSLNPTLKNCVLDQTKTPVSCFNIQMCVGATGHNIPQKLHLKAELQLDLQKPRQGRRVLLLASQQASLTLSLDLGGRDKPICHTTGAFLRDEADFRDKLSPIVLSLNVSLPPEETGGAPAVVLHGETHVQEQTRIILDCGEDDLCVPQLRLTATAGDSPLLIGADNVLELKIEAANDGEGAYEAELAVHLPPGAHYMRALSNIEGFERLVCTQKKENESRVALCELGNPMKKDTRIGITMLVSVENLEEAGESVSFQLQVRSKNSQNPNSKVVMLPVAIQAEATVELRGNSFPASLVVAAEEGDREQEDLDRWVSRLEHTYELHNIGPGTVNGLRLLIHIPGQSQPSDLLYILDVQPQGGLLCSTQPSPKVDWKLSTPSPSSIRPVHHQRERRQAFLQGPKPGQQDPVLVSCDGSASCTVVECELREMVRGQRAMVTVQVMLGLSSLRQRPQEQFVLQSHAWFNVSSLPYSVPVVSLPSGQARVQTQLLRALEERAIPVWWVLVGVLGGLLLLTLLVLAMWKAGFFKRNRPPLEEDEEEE

On to RLYB211 (antibody), for which, in test [1], the occupancy of available GPIIb-IIIa receptors at ~4 IU/mL is under 10%.

B1: RLYB212 (antibody, human IgG1, kappa, V domains shown)
VH: QVQLQQSGPGLVKPSQTLSLTCAISGDSVSSNSAAWNWIRQSPSRGLEWLGRTYFRSNWYNDYAASVKSRITINQDTSKNQLSLQLNSVTPEDTAVYYCARDGAWGGSSWWPGLPHHYYSGMDVWGQGTTVTVSS
VL: EIVLTQSPATLSLSPGERATLSCRASQSVSSYLAWYQQKPGQAPRLLIYDASKRATGIPARFSGSGSGTDFSLTIRSLEPEDFAVYYCQQRSDWQGLTFGGGTKVEIKR
notes: also called monoclonal RLYB212; monospecific monoclonal antibody RLYB212
For B1, the occupancy of available GPIIb-IIIa receptors at ~4 IU/mL in test [1] is under 10%. For the same molecule, in test [2], the binding result is given as “binds”. For the same molecule, the concentration that fully saturates GPIIb-IIIa receptors in test [3] was over 100 IU/ml.
